Patent US20240327503A1 (University of Texas, published 2024)

Biological target: spike protein of SARS-COV-2 WA1 live virus (SARS-CoV-2, UniProt P0DTC2 14-1273)
Test: cell-based or functional assay

B1: A7V3 (antibody, V domains shown)
VH: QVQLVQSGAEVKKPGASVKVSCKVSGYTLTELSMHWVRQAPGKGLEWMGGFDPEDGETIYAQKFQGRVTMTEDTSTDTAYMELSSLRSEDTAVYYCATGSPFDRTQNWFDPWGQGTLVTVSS
VL: QSVVTQPPSVSAAPGQKVTISCSGSSSNIGNNYVSWYQQLPGTAPKLLIYDNNKRPSGIPDRFSGSKSGTSATLGITGLQTGDEADYYCGTWDSSLSAVVFGGGTKLTVL
- IC50, live virus neutralization of SARS-CoV-2 WA1: 0.95 nM
